Measured values reported in the supplement of paper PMC9112550, “Optimization of the antimicrobial peptide Bac7 by deep mutational scanning” (BMC Biology, 2022).

System: Escherichia coli TOP10
Test: shrunken log2 fold change of peptide-encoding DNA abundance (4.5 h post-induction vs induction); higher = less antimicrobial activity (less host growth inhibition)
Conditions: time post-induction: 4.5 h; library: site-saturation at positions 5, 18, 19, 20
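Also: peptides expressed intracellularly from a pBAD plasmid library in pooled LB shake-flask culture, induced with 0.3% L-arabinose, DNA abundance read by NGS, three biological replicates, DESeq2 with apeglm shrinkage.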

Sequence	shrunken log2 fold change
RRIRQRPPRLPRPRPRPGDIPRP	-0.0112
RRIRDRPPRLPRPRPRPWVVPRP	0.0765
RRIRFRPPRLPRPRPRPSCCPRP	-0.443
RRIRERPPRLPRPRPRPLHRPRP	-0.0862
RRIRHRPPRLPRPRPRPNMDPRP	-0.173
RRIRYRPPRLPRPRPRPPLEPRP	0.119
RRIRHRPPRLPRPRPRPEHQPRP	-0.291
RRIRHRPPRLPRPRPRPGLFPRP	-0.0985
RRIRERPPRLPRPRPRPFHIPRP	-0.133
RRIRNRPPRLPRPRPRPFDAPRP	-0.106
RRIRTRPPRLPRPRPRPTMTPRP	-0.0413
RRIRNRPPRLPRPRPRPCVMPRP	0.0192
RRIRMRPPRLPRPRPRPAYYPRP	-0.3
RRIRCRPPRLPRPRPRPDYMPRP	-0.133
RRIRCRPPRLPRPRPRPSWHPRP	-0.488
RRIRERPPRLPRPRPRPERGPRP	0.119
RRIRGRPPRLPRPRPRPMSLPRP	-0.0288
RRIRPRPPRLPRPRPRPYEKPRP	-0.0835
RRIRFRPPRLPRPRPRPCKHPRP	-0.0872
RRIRDRPPRLPRPRPRPDQPPRP	-0.00151
RRIRGRPPRLPRPRPRPQRSPRP	0.16
RRIRNRPPRLPRPRPRPTYMPRP	-0.596
RRIRYRPPRLPRPRPRPHRYPRP	-0.41
RRIRGRPPRLPRPRPRPLDDPRP	1.09
RRIRMRPPRLPRPRPRPMWFPRP	0.233

Sequence	shrunken log2 fold change
RRIRRRPPRLPRPRPRPGMNPRP	0.00468
RRIRQRPPRLPRPRPRPAGHPRP	0.000618
RRIRVRPPRLPRPRPRPMWRPRP	0.127
RRIRPRPPRLPRPRPRPIKVPRP	-0.468
RRIRSRPPRLPRPRPRPMRFPRP	0.378
RRIRERPPRLPRPRPRPPNMPRP	-0.251
RRIRNRPPRLPRPRPRPYFLPRP	-0.897
RRIRIRPPRLPRPRPRPMFGPRP	-0.0865
RRIRNRPPRLPRPRPRPIWDPRP	-0.14
RRIRERPPRLPRPRPRPFFLPRP	-0.384
RRIRLRPPRLPRPRPRPNKSPRP	-0.354
RRIRARPPRLPRPRPRPYMSPRP	0.00296
RRIRLRPPRLPRPRPRPPLWPRP	0.447
RRIRWRPPRLPRPRPRPHIFPRP	-0.494
RRIRPRPPRLPRPRPRPVLNPRP	-0.113
RRIRDRPPRLPRPRPRPNSFPRP	-0.0585
RRIRERPPRLPRPRPRPYPNPRP	-1.19
RRIRLRPPRLPRPRPRPVAMPRP	0.0144
RRIRPRPPRLPRPRPRPCCLPRP	-0.439
RRIRCRPPRLPRPRPRPCMMPRP	-0.914
RRIRSRPPRLPRPRPRPMKEPRP	-0.338
RRIRYRPPRLPRPRPRPYIVPRP	-0.496
RRIRVRPPRLPRPRPRPFKFPRP	-0.0599
RRIRLRPPRLPRPRPRPDGCPRP	-0.0283
RRIRARPPRLPRPRPRPYQDPRP	-0.00221

Sequence	shrunken log2 fold change
RRIRCRPPRLPRPRPRPECQPRP	0.511
RRIRTRPPRLPRPRPRPKIEPRP	-0.00653
RRIRKRPPRLPRPRPRPQMSPRP	-0.164
RRIRERPPRLPRPRPRPISFPRP	-0.441
RRIRLRPPRLPRPRPRPYLEPRP	-0.169
RRIRARPPRLPRPRPRPQTHPRP	0.491
RRIRLRPPRLPRPRPRPWNFPRP	-0.0899
RRIRLRPPRLPRPRPRPLIAPRP	-0.498
RRIRDRPPRLPRPRPRPESHPRP	0.0331
RRIRVRPPRLPRPRPRPSHQPRP	0.0669
RRIRIRPPRLPRPRPRPWWHPRP	-0.218
RRIRQRPPRLPRPRPRPPGNPRP	0.246
RRIRTRPPRLPRPRPRPVSSPRP	0.651
RRIRPRPPRLPRPRPRPVFQPRP	0.315
RRIRKRPPRLPRPRPRPQKKPRP	-0.111
RRIRTRPPRLPRPRPRPYSIPRP	0.015
RRIRNRPPRLPRPRPRPPNDPRP	0.182
RRIRIRPPRLPRPRPRPSRIPRP	-0.0712
RRIRLRPPRLPRPRPRPNGEPRP	0.00184
RRIRLRPPRLPRPRPRPKDIPRP	-0.23
RRIRERPPRLPRPRPRPYMMPRP	-0.259
RRIRIRPPRLPRPRPRPWEAPRP	0.0112
RRIRQRPPRLPRPRPRPILEPRP	-0.536
RRIRDRPPRLPRPRPRPIRNPRP	0.011
RRIRYRPPRLPRPRPRPSWAPRP	-0.21

Sequence	shrunken log2 fold change
RRIRQRPPRLPRPRPRPFIVPRP	-0.136
RRIRTRPPRLPRPRPRPKEPPRP	-0.00172
RRIRFRPPRLPRPRPRPHCGPRP	-0.308
RRIRDRPPRLPRPRPRPWQWPRP	-0.0124
RRIRRRPPRLPRPRPRPQICPRP	-0.0654
RRIRYRPPRLPRPRPRPKNFPRP	-0.663
RRIRRRPPRLPRPRPRPRAMPRP	0.145
RRIRFRPPRLPRPRPRPRGSPRP	0.432
RRIRRRPPRLPRPRPRPQIHPRP	-0.515
RRIRFRPPRLPRPRPRPDIPPRP	-0.634
RRIRSRPPRLPRPRPRPGNTPRP	-0.472
RRIRPRPPRLPRPRPRPKLFPRP	0.18
RRIRTRPPRLPRPRPRPYLKPRP	-0.27
RRIRARPPRLPRPRPRPMHQPRP	0.0908
RRIRERPPRLPRPRPRPRDLPRP	0.023
RRIRHRPPRLPRPRPRPSYEPRP	-0.503
RRIRYRPPRLPRPRPRPAVGPRP	0.0398
RRIRFRPPRLPRPRPRPETRPRP	0.159
RRIRERPPRLPRPRPRPACNPRP	-0.102
RRIRKRPPRLPRPRPRPTCNPRP	0.198
RRIRSRPPRLPRPRPRPFKHPRP	-0.195
RRIRIRPPRLPRPRPRPLWAPRP	-0.174
RRIRSRPPRLPRPRPRPVCWPRP	0.714
RRIRYRPPRLPRPRPRPYTRPRP	-1.51
RRIRFRPPRLPRPRPRPHPLPRP	-0.16

Sequence	shrunken log2 fold change
RRIRNRPPRLPRPRPRPSLPPRP	-0.378
RRIRDRPPRLPRPRPRPGLFPRP	0.949
RRIRKRPPRLPRPRPRPIKAPRP	0.211
RRIRCRPPRLPRPRPRPWQPPRP	0.0636
RRIRERPPRLPRPRPRPRCAPRP	0.228
RRIRNRPPRLPRPRPRPPTWPRP	0.434
RRIRIRPPRLPRPRPRPCDPPRP	0.00225
RRIRYRPPRLPRPRPRPLYQPRP	-0.13
RRIRTRPPRLPRPRPRPCLLPRP	-0.413
RRIRRRPPRLPRPRPRPNCRPRP	0.563
RRIRNRPPRLPRPRPRPHIPPRP	-0.793
RRIRNRPPRLPRPRPRPQHCPRP	-0.065
RRIRNRPPRLPRPRPRPDEKPRP	-0.133
RRIRARPPRLPRPRPRPYRWPRP	0.0451
RRIRIRPPRLPRPRPRPHPPPRP	-0.0108
RRIRCRPPRLPRPRPRPFINPRP	-1.1
RRIRFRPPRLPRPRPRPCIAPRP	-0.166
RRIRQRPPRLPRPRPRPGGYPRP	0.144
RRIRFRPPRLPRPRPRPWFGPRP	-0.191
RRIRARPPRLPRPRPRPVTCPRP	0.0514
RRIRNRPPRLPRPRPRPLDYPRP	-0.309
RRIRVRPPRLPRPRPRPSKNPRP	-0.364
RRIRTRPPRLPRPRPRPFQGPRP	-0.00192
RRIRIRPPRLPRPRPRPVTSPRP	-0.0328
RRIRDRPPRLPRPRPRPWNQPRP	-0.0409

Sequence	shrunken log2 fold change
RRIRGRPPRLPRPRPRPAYEPRP	0.457
RRIRSRPPRLPRPRPRPAHLPRP	0.27
RRIRRRPPRLPRPRPRPFNSPRP	0.0474
RRIRRRPPRLPRPRPRPNNRPRP	-0.0987
RRIRMRPPRLPRPRPRPCYAPRP	-0.105
RRIRIRPPRLPRPRPRPHLTPRP	-0.379
RRIRPRPPRLPRPRPRPGSMPRP	-0.149
RRIRGRPPRLPRPRPRPINIPRP	0.00461
RRIRLRPPRLPRPRPRPHMQPRP	-0.556
RRIRVRPPRLPRPRPRPWSAPRP	-0.135
RRIRYRPPRLPRPRPRPITDPRP	-0.162
RRIRSRPPRLPRPRPRPEKAPRP	-0.193
RRIRDRPPRLPRPRPRPMCYPRP	-0.0124
RRIRVRPPRLPRPRPRPPRVPRP	0.305
RRIRTRPPRLPRPRPRPYSVPRP	-0.027
RRIRFRPPRLPRPRPRPINPPRP	-1.08
RRIRDRPPRLPRPRPRPPWMPRP	0.261
RRIRRRPPRLPRPRPRPCQWPRP	0.107
RRIRQRPPRLPRPRPRPMAHPRP	0.00446
RRIRYRPPRLPRPRPRPNIMPRP	-1.42
RRIRIRPPRLPRPRPRPYQLPRP	-0.699
RRIRARPPRLPRPRPRPMKEPRP	-0.101
RRIRIRPPRLPRPRPRPMPQPRP	-0.133
RRIRCRPPRLPRPRPRPPIPPRP	0.31
RRIRYRPPRLPRPRPRPYIRPRP	-1.92e-05
